The source of these data is paper PMC5511259.

The target in this test is Hd1 segment (aa112–337) between the zinc finger domain and the CCT domain (rice (Oryza sativa L.)) (UniProt Q9FDX8).
Sequence of UniProt Q9FDX8 (Q9FDX8 112-337): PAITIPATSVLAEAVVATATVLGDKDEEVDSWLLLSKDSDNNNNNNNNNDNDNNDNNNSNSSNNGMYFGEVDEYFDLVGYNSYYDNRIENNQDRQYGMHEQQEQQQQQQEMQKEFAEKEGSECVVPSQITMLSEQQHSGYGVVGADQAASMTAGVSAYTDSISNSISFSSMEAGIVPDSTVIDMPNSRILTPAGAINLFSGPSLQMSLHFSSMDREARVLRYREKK

In turn, “Ghd7 (aa187–257) segment containing the CCT domain (from UniProt E5RQA1 187-257) (domain or fragment)” yielded a relative LUC activity activated by GAL4-Hd1^ZS (full-length CDS of Hd1 from ZS97) in rice protoplasts with increasing dosage of 35S:Ghd7-CFP (2, 4, 10 μg); decreased from 7.0 to 0.8 (relative LUC activity) of 7.
